Source: US20110152341
Changes are numbered by the printed parent chain.

T1: APP-derived peptide substrate D597isoD, H-GLTNIKTEEISEVKMi…-NH2
T1 chain: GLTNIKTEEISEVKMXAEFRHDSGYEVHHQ

T2: APP-derived peptide substrate E599Q, H-GLTNIKTEEISEVKMDAQFRHDSGYEVHHQ-NH2
T2 chain: T1 chain with X16D, E18Q

T3: APP-derived peptide substrate sw D597isoD, H-GLTNIKTEEISEVNLi…-NH2
T3 chain: T1 chain with K14N, M15L

T4: APP-derived peptide substrate sw E599Q, H-GLTNIKTEEISEVNLDAQFRHDSGYEVHHQ-NH2
T4 chain: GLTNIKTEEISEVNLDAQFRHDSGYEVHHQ

T5: APP-derived peptide substrate swedish (sw), H-GLTNIKTEEISEVNLDAEFRHDSGYEVHHQ-NH2
T5 chain: T4 chain with Q18E

T6: APP-derived peptide substrate wildtyp (wt), H-GLTNIKTEEISEVKMDAEFRHDSGYEVHHQ-NH2
T6 chain: T1 chain with X16D

B1: Recombinant human meprin α (R&D systems) (protein)
chain: VPIKYLPEENVHDADFGEQKDISEINLAAGLDLFQGDILLQKSRNGLRDPNTRWTFPIPYILADNLGLNAKGAILYAFEMFRLKSCVDFKPYEGESSYIIFQQFDGCWSEVGDQHVGQNISIGQGCAYKAIIEHEILHALGFYHEQSRTDRDDYVNIWWDQILSGYQHNFDTYDDSLITDLNTPYDYESLMHYQPFSFNKNASVPTITAKIPEFNSIIGQRLDFSAIDLERLNRMYNCTTTHTLLDHCTFEKANICGMIQGTRDDTDWAHQDSAQAGEVDHTLLGQCTGAGYFMQFSTSSGSAEEAALLESRILYPKRKQQCLQFFYKMTGSPSDRLVVWVRRDDSTGNVRKLVKVQTFQGDDDHNWKIAHVVLKEEQKFRYLFQGTKGDPQNSTGGIYLDDITLTETPCPTGVWTVRNFSQVLENTSKGDKLQSPRFYNSEGYGFGVTLYPNSRESSGYLRLAFHVCSGENDAILEWPVENRQVIITILDQEPDVRNRMSSSMVFTTSKSHTSPAINDTVIWDRPSRVGTYHTDCNCFRSIDLGWSGFISHQMLKRRSFLKNDDLIIFVDFEDITHLSQTEVPTKGKRLSPQGLILQGQEQQVSEEGSGKAMLEEALPVSLSQGQPSRQKRSVENTGPLEDHNWPQYFRDPCDPNPCQNDGICVNVKGMASCRCISGHAFFYTGERCQAV
B2: Human meprin β transiently overexpressed in HEK293 cells (pcDNA-hMPβ) (protein)
chain: NSIIGEKYRWPHTIPYVLEDSLEMNAKGVILNAFERYRLKTCIDFKPWAGETNYISVFKGSGCWSSVGNRRVGKQELSIGANCDRIATVQHEFLHALGFWHEQSRSDRDDYVRIMWDRILSGREHNFNTYSDDISDSLNVPYDYTSVMHYSKTAFQNGTEPTIVTRISDFEDVIGQRMDFSDSDLLKLNQLYNCSSSLSFMDSCSFELENVCGMIQSSGDNADWQRVSQVPRGPESDHSNMGQCQGSGFFMHFDSSSVNVGATAVLESRTLYPKRGFQCLQFYLYNSGSESDQLNIYIREYSADNVDGNLTLVEEIKEIPTGSWQLYHVTLKVTKKFRVVFEGRKGSGASLGGLSIDDINLSETRCPHHIWHIRNFTQFIGSPNGTLYSPPFYSSKGYAFQIYLNLAHVTNAGIYFHLISGANDDQLQWPCPWQQATMTLLDQNPDIRQRMSNQRSITTDPFMTTDNGNYFWDRPSKVGTVALFSNGTQFRRGGGYGTSAFITHERLKSRDFIKGDDVYILLTVEDISHLNSTQIQLTPAPSVQDLCSKTTCKNDGVCTVRDGKAECRCQSGEDWWYMGERCEKRGSTRDTIVIAVSSTVAVFALMLIITLVSVYCTRKKYRERMSSNRPNLTPQNQHAF
B3: Recombinant human meprin β (R&D systems) (protein)
chain: TPENFDVDGGMDQDIFDINEGLGLDLFEGDIRLDRAQIRNSIIGEKYRWPHTIPYVLEDSLEMNAKGVILNAFERYRLKTCIDFKPWAGETNYISVFKGSGCWSSVGNRRVGKQELSIGANCDRIATVQHEFLHALGFWHEQSRSDRDDYVRIMWDRILSGREHNFNTYSDDISDSLNVPYDYTSVMHYSKTAFQNGTEPTIVTRISDFEDVIGQRMDFSDSDLLKLNQLYNCSSSLSFMDSCSFELENVCGMIQSSGDNADWQRVSQVPRGPESDHSNMGQCQGSGFFMHFDSSSVNVGATAVLESRTLYPKRGFQCLQFYLYNSGSESDQLNIYIREYSADNVDGNLTLVEEIKEIPTGSWQLYHVTLKVTKKFRVVFEGRKGSGASLGGLSIDDINLSETRCPHHIWHIRNFTQFIGSPNGTLYSPPFYSSKGYAFQIYLNLAHVTNAGIYFHLISGANDDQLQWPCPWQQATMTLLDQNPDIRQRMSNQRSITTDPFMTTDNGNYFWDRPSKVGTVALFSNGTQFRRGGGYGTSAFITHERLKSRDFIKGDDVYILLTVEDISHLNSTQIQLTPAPSVQDLCSKTTCKNDGVCTVRDGKAECRCQSGEDWWYMGERCEKRGSTRDT

Key:
[1] = target: T1, APP-derived peptide substrate D597isoD, …
[2] = target: T2, APP-derived peptide substrate E599Q, …
[3] = target: T3, APP-derived peptide substrate sw …
[4] = target: T4, APP-derived peptide substrate sw E599Q, …
[5] = target: T5, APP-derived peptide substrate swedish …
[6] = target: T6, APP-derived peptide substrate wildtyp …
[7] = target: Human APP wildtyp transiently overexpressed in HEK293 cells (pcDNA-hAPP)
[8] = target: Human APP with mutation E599Q overexpressed in HEK293 cells (pcDNA-hAPP/E3Q)
[9] = target: Human APP with swedish mutation K595N, M596L overexpressed in HEK293 cells (pcDNA-hAPPsw)

Human APP with mutation E599Q overexpressed in HEK293 cells (pcDNA-hAPP/E3Q), sequence (chain, as listed by the source E599Q): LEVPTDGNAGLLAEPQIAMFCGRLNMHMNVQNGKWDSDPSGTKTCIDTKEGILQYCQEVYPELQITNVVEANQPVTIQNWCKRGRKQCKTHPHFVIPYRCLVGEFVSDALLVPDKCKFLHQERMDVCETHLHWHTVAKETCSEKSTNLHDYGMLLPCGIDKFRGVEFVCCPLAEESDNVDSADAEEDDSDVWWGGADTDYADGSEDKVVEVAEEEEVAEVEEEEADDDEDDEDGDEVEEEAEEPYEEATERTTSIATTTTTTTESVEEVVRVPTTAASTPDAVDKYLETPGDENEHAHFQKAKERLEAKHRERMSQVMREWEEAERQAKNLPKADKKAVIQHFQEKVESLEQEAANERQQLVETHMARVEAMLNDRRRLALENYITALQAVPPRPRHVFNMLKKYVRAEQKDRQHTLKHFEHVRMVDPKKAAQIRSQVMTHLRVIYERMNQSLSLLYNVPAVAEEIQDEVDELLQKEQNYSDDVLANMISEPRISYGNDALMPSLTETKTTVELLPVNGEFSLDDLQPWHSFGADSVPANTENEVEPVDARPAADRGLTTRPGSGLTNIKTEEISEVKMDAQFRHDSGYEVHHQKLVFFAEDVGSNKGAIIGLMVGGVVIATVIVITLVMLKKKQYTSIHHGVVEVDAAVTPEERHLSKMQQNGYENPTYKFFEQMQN

| Protein | peptide cleavage, fragments by MALDI-TOF mass spectrometry (numbering according to substrate 1-30) [1] | peptide cleavage, fragments by MALDI-TOF mass spectrometry (numbering according to substrate 1-30) [2] | peptide cleavage, fragments by MALDI-TOF mass spectrometry (numbering according to substrate 1-30) [3] | peptide cleavage, fragments by MALDI-TOF mass spectrometry (numbering according to substrate 1-30) [4] | peptide cleavage, fragments by MALDI-TOF mass spectrometry (numbering according to substrate 1-30) [5] | peptide cleavage, fragments by MALDI-TOF mass spectrometry (numbering according to substrate 1-30) [6] | amount of secreted Aβ (ELISA from IBL, non specific for the Aβ N-terminus) [7] | generated Aβ species by urea western-blot after immuno-precipitation [7] | secreted Aβ estimated with antibody 6E10 (ELISA) [7] | secretion of Aβ (ELISA, IBL kit with antibody 6E10), with and without 20 µM actinonin [7] | amount of secreted Aβ (ELISA from IBL, non specific for the Aβ N-terminus) [8] | secreted Aβ estimated with antibody 6E10 (ELISA) [8] | secreted Aβ estimated with antibody 6E10 (ELISA) [9] |
| --- | --- | --- | --- | --- | --- | --- | --- | --- | --- | --- | --- | --- | --- |
| B1 | The fragments 5-30, 7-30, 1-21, 1-15, 17-30 and 16-30 were identified. | The fragments 5-30, 7-30, 5-21, 12-30 and 7-21 were identified. | The fragments 5-30 and 7-30 were identified. | The fragments 1-21, 7-30 and 5-30 were identified. | The fragments 5-30, 7-30 and 16-30 were identified. | The fragments 5-30, 7-30, 17-30 and 16-30 were identified. |  |  |  |  |  |  |  |
| B2 |  |  |  |  |  |  | significantly increased for APPwt and APP/E3Q | revealed the formation of an additional Aβ species after co-transfection with hAPP and human meprin β compared to transfection with hAPP. This additional Aβ species co-migrates with Aβ3-40. | Secretion of Aβ is significantly increased after transfection with pcDNA-hMPβ and pcDNA-hAPP wildtyp, swedish and E3Q. | Secretion of Aβ is significantly increased in HEK293 after transient overexpression of hAPP and hMPβ (see FIG. 26). This increase is reduced to almost the basal level by the addition of 20 µM actinonin. | significantly increased for APPwt and APP/E3Q | Secretion of Aβ is significantly increased after transfection with pcDNA-hMPβ and pcDNA-hAPP wildtyp, swedish and E3Q. | Secretion of Aβ is significantly increased after transfection with pcDNA-hMPβ and pcDNA-hAPP wildtyp, swedish and E3Q. |
| B3 | The fragments 1-15, 1-16, 17-30 and 16-30 were identified. | The fragments 8-30, 9-30, 1-22, 1-21, 12-30 17-30 18-30 9-21 were identified. | The fragment 12-30 were identified. | The fragments 16-30, 1-15, 9-21 and 9-20 were identified. | The fragments 16-30, 17-30 1-15 and 18-30 were identified. | The fragments 1-16, 1-15, 17-30, and 18-30 were identified. |  |  |  |  |  |  |  |
